Here are results for two molecules from publication PMC3518268 (Science (New York, N.Y.), 2009).

First the molecules themselves.
B2: full length MO25α (natural protein, human, UniProt Q9Y376 1-341, looked up)
chain: MPFPFGKSHKSPADIVKNLKESMAVLEKQDISDKKAEKATEEVSKNLVAMKEILYGTNEKEPQTEAVAQLAQELYNSGLLSTLVADLQLIDFEGKKDVAQIFNNILRRQIGTRTPTVEYICTQQNILFMLLKGYESPEIALNCGIMLRECIRHEPLAKIILWSEQFYDFFRYVEMSTFDIASDAFATFKDLLTRHKLLSAEFLEQHYDRFFSEYEKLLHSENYVTKRQSLKLLGELLLDRHNFTIMTKYISKPENLKLMMNLLRDKSRNIQFEAFHVFKVFVANPNKTQPILDILLKNQAKLIEFLSKFQNDRTEDEQFNDEKTYLVKQIRDLKRPAQQEA

Assay [1] has as its target T1, pseudokinase domain of STRADα (residues 59-431) (human, UniProt Q7RTN6 59-431).
T1 sequence (looked up): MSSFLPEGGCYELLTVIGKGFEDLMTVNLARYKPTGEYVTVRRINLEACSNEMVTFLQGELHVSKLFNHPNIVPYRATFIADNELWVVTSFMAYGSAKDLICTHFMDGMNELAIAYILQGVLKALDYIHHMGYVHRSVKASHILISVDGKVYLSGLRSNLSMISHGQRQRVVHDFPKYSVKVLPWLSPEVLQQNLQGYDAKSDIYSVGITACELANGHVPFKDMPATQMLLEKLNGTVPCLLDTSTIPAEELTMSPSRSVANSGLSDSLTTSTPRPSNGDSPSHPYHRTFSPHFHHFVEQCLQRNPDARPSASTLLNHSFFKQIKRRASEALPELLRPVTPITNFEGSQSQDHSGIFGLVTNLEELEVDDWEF
Briefly: crystal structure.

For assay [2], the target named is B2. Nature of the assay: crystal structure.

B1: LKB1 kinase domain (residues 43-347), catalytically inactive mutant Asp194Ala (domain or fragment, human, UniProt Q15831 43-347, looked up)
chain: AKLIGKYLMGDLLGEGSYGKVKEVLDSETLCRRAVKILKKKKLRRIPNGEANVKKEIQLLRRLRHKNVIQLVDVLYNEEKQKMYMVMEYCVCGMQEMLDSVPEKRFPVCQAHGYFCQLIDGLEYLHSQGIVHKDIKPGNLLLTTGGTLKISALGVAEALHPFAADDTCRTSQGSPAFQPPEIANGLDTFSGFKVDIWSAGVTLYNITTGLYPFEGDNIYKLFENIGKGSYAIPGDCGPPLSDLLKGMLEYEPAKRFSIRQIRQHSWFRKKHPPAEAPVPIPPSPDTKDRWRSMTVVPYLEDLHGA
Consider B1, for which the binding result in assay [1] and in assay [2] was “binds” in each case.

For the molecule B2, the binding result in assay [1] is “binds”.
